These results are taken from paper PMC7327521 (Journal of Molecular Biology, 2020).

Square brackets hold non-standard residues; d marks the D form. Ends that are not written are not given here. pY = N[C@@H](Cc1ccc(OP(=O)(O)O)cc1)C(=O)O

Holding throughout (test): fluorescence polarisation
Background: Fluorescence polarisation rises when a labelled molecule tumbles more slowly, as on binding a larger partner.

One test addresses T1, Spt6-tSH2 K1434A (C. glabrata, UniProt Q6FLB1 1250-1444, K1434A).
T1 sequence (looked up): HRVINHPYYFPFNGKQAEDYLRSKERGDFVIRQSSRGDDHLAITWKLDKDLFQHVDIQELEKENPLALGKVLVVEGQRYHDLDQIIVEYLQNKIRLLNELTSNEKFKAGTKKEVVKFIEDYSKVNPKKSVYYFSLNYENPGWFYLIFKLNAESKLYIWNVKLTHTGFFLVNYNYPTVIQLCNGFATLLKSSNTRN

For test [1], the target named is T2, N-terminal SH2 domain of C. glabrata Spt6 (Spt6-N-SH2) (C. glabrata, UniProt Q6FLB1 1250-1354).
T2 sequence (looked up): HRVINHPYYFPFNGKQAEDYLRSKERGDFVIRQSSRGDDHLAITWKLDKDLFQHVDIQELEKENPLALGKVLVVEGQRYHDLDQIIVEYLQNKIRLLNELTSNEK

In test [2] the target is T3, Spt6-tSH2 R1281A/S1283A/R1285A (C. glabrata, UniProt Q6FLB1 1250-1444, R1281A | S1283A | R1285A).
T3 sequence (looked up): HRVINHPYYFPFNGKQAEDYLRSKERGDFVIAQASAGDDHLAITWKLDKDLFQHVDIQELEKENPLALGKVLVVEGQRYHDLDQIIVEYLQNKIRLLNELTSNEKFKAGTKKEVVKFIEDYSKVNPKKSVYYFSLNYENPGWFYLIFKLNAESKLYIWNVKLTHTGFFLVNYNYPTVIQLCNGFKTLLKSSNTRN

The target in a further test is T4, Spt6-tSH2 K1360A (C. glabrata, UniProt Q6FLB1 1250-1444, K1360A).
T4 sequence (looked up): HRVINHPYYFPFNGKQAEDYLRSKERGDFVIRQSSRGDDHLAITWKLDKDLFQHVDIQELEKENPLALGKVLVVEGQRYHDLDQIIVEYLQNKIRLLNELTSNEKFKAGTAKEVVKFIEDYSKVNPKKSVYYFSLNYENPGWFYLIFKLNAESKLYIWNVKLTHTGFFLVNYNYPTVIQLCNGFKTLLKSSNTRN

Another test has as its target T5, Spt6-tSH2 R1281A (C. glabrata, UniProt Q6FLB1 1250-1444, R1281A).
T5 sequence (looked up): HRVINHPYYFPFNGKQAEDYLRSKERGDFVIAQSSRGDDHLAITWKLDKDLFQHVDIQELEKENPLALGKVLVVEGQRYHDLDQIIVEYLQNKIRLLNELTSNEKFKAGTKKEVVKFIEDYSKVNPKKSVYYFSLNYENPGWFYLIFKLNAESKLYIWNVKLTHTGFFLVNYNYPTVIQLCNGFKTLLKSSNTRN

For a further test, the target named is T6, Spt6-tSH2 K1354E (C. glabrata, UniProt Q6FLB1 1250-1444, K1354E).
T6 sequence (looked up): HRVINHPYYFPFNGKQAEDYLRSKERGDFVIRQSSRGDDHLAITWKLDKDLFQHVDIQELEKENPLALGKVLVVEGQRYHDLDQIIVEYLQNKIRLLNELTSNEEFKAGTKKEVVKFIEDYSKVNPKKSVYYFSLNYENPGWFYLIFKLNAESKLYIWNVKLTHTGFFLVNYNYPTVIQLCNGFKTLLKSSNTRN

Another test addresses T7, Spt6-tSH2 R1281A/S1284A (C. glabrata, UniProt Q6FLB1 1250-1444, R1281A | S1284A).
T7 sequence (looked up): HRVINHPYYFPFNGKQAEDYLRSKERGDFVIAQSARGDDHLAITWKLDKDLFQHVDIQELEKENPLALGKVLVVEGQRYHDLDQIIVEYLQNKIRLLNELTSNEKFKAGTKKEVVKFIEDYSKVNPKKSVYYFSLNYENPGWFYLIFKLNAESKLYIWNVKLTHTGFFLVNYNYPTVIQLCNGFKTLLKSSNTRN

A further test deals with T8, Spt6-tSH2 S1284A (C. glabrata, UniProt Q6FLB1 1250-1444, S1284A).
T8 sequence (looked up): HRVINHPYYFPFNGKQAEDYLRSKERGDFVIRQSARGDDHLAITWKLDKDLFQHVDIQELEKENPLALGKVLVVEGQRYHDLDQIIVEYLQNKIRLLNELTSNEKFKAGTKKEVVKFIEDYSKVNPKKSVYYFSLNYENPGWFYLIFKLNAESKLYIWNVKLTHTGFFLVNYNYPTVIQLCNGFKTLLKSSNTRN

As for {5,6‑FAM}-PS[pY]SPTSPS[pY]SPTSPS [(pY1-CTD)2, FAM-labelled tyrosine-phosphorylated CTD diheptad], the Kd with Spt6-tSH2 K1434A was determined as 24 µM; in test [1] it was 313 µM; in test [2], 16.5 µM; in the test with Spt6-tSH2 K1360A, 12.4 µM; with Spt6-tSH2 R1281A it was 17.6 µM; in the test with Spt6-tSH2 K1354E, 16.3 µM. Also, the Kd turned out to be 11.4 µM with Spt6-tSH2 R1281A/S1284A and 8.2 µM with Spt6-tSH2 S1284A.

For orientation: Kd means the equilibrium constant for the complex coming apart. Higher therefore signals weaker binding.
